Source: publication PMC9076830, “Structure of the Arabidopsis guard cell anion channel SLAC1 suggests activation mechanism by phosphorylation” (Nature Communications, 2022)

Target: the molecule itself
Assay: cryo-EM structure; single-particle analysis of purified AtSLAC1 S59A in 25 mM HEPES pH 7.4, 150 mM NaCl, 0.03% digitonin; final refinement with C3 symmetry; 2.7 Å

B1: Arabidopsis thaliana slow anion channel 1 (AtSLAC1) S59A mutant (natural protein, UniProt Q9LD83 1-556, looked up)
chain: MERKQSNAHSTFADINEVEDEAEQELQQQENNNNKRFSGNRGPNRGKQRPFRGFSRQVALETGFSVLNRESRERDDKKSLPRSGRSFGGFESGGIINGGDGRKTDFSMFRTKSTLSKQKSLLPSIIRERDIENSLRTEDGETKDDSINENVSAGRYFAALRGPELDEVKDNEDILLPKEEQWPFLLRFPIGCFGICLGLSSQAVLWLALAKSPATNFLHITPLINLVVWLFSLVVLVSVSFTYILKCIFYFEAVKREYFHPVRVNFFFAPWVVCMFLAISVPPMFSPNRKYLHPAIWCVFMGPYFFLELKIYGQWLSGGKRRLCKVANPSSHLSVVGNFVGAILASKVGWDEVAKFLWAVGFAHYLVVFVTLYQRLPTSEALPKELHPVYSMFIAAPSAASIAWNTIYGQFDGCSRTCFFIALFLYISLVARINFFTGFKFSVAWWSYTFPMTTASVATIKYAEAVPGYPSRALALTLSFISTAMVCVLFVSTLLHAFVWQTLFPNDLAIAITKRKLTREKKPFKRAYDLKRWTKQALAKKISAEKDFEAEEESHH
modifications: S146 and S543 identified as phosphorylated by mass spectrometry of the purified S59A mutant
notes: Slow anion channel 1 (SLAC1), Arabidopsis thaliana, full length, 556 residues; codon-optimised synthetic DNA; residues 150-517 modelled in the structure; No step that removes the tags is described; not shown: Flag, N-terminal, kept
In the case of B1, the “stoichiometry N” value is reported as 3.
